# Source: the RNAGym collection of RNA variant scans (doi:10.1073/pnas.2313332121)
# B1: TPR t1 (parent)
# chain: GACCAAUCUGCCCUCAGAGCUCGAGAACAUCUUCGGAUGCAGAGGAGGCAGGCUUCGGUGGCGCGAUAGCGCCAACGUCCUCAACCUCCAAUGCAUCCCACCACAUGAUGAUGCCUGAAGAGCCUUGGUUUUUUG
# Variants of: B1
# Experiment: polymerase ribozyme fitness, log enrichment relative to wild type (log ratio); higher = more active; in vitro selection for triplet polymerase activity
# In short: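 In triplicate, a single round of in vitro selection was run on each mutant library, PCR-built and transcribed, covering one subunit of a heterodimeric triplet polymerase ribozyme. Frozen incubation at −7 °C followed annealing with a biotinylated primer, partner subunit and triplets, and extended constructs were then gel-excised, streptavidin-captured and taken through RT-PCR. Fitness is the logarithm of genotype enrichment over wild-type enrichment, from inverse-variance-weighted replicate averages of Illumina-sequenced inputs and outputs. […] only genotypes with ≥10 input reads and ≥1 read per output were kept.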
row,Variant,polymerase ribozyme fitness (log ratio)
1,GACCCAUCUGCCCUCAGAGCUCGAGAACAUCUUCGGAUGCAGAGGAGGCAGGCUUCGAUGGCGCGAUAGCGCCAACGUCCUCAACCUCAAAUGGAUCCCAUCACAUGAUGAUGCCUGAAGAGCCUUGGUUUUUUG [A5C G58A C89A C94G C101U],-5.27
2,GACCCAUCUGCCCUCAGAGCUCGAGAACAUCUUCGGAUGCAGAGGAGGCAGGCUUCGGUGGCGCGAUAGCGCCAACAUCCUCAACCUCCAAUGCAUCCCACCACAUGAUGAUGCCUGAAGAGCCUUGGUUUUUUG [A5C G77A],-0.654
3,GACCCAUCUGCCCUCAGAGCUCGAGAACAUCUUCGGAUGCAGAGGAGGCAGGCUUCGGUGGCUCGAUAGCGCCAACGUCCUCAACCUCCAAUGCAUCCCACCACAUGAUGAUGCCUGAAGAGCCUUGGUUUUUUG [A5C G63U],-1.6
4,GACCCAUCUGCCCUCAGAGCUCGAGAACAUCUUCGGAUGCAGAGGAGGCAGGCUUCGGUAGCGCGAUAGCGCCAACGUCCUCAACCUCGAAUACAUCCCACCACAUGAUGGUGCCUGAAGAGCCUUGGUUUUUUG [A5C G60A C89G G93A A111G],-4.73
5,GACCCAUCUGCCCUCAGAGCUCGAGAACAUCUUCGGAUGCAGAGGAGGCAGGCUUCGGUAACGCGAUAGCGCCAACGUCCUCAACCUCCAAUGCAUCCCACCACAUGAUGAUGACUGAAGAGCCUUGGUUUUUUG [A5C G60A G61A C114A],-4.47
6,GACCCAUCUGCCCUCAGAGCUCGAGAACAUCUUCGGAUGCAGAGGAGGCAGGCUUCGGUGGCGCGAUAGCGCAAACGUCCUCAACCUCCAAUGCAUCCCACCACAUGAUGAUGCCUGAAGAGGCUUGGUUUUUUG [A5C C73A C123G],1.28
7,GACCCAUCUGCCCUCAGAGCUCGAGAACAUCUUCGGAUGCAGAGGAGUAAGGCUUCGGUGGCGCGAUAGCGCCAACGUCCUCAACCUCCAAUGAAUCCCACCACAUGAUGAUGCCUGAAGAGCCUUGGUUUUUUG [A5C G48U C49A C94A],-2.25
8,GACCCAUCUGCCCUCAGAGCUCGAGAACAUCUUCGGAUGCAGAGGAGGCAGGCUUCGGUGGCGCGAUAGCGCCAACGUCCUCAACCUCCAAUGCAUCCCACCACAUGAUGAUGCAUGAAGAGCCUUGGUUUUUUG [A5C C115A],-0.966
9,GACCCAUCUGCCCUCAGAGCUCGAGAACAUCUUCGGAUGCAGAGUAGGCAGGCUUCGGUGGCGCGAUAGCGCCAACGUCCUCAACCUCCAAUGCAUCCCACCACAUGAUGAUGCCUGAAGAGCCUUGGUUUUUUG [A5C G45U],-1.36
10,GACCCAUCUGCCCUCAAAGCUCGAGAACAUCUUCGGAUGCAGAGGAGGCAGGCUUCGGUGGCGCGAUAGCGCCAACGUCCUCAACCUCCAAUGCAUCCCACCACAUGAUGAUGCCUGAAGAGCCUUUGUUUUUUG [A5C G17A G127U],-4.89
11,GACCCAUCUGCCCUCAGAGCUCGAGAACAUCUUCGGAUGCAGAGGAGGCAGGCUUCGGUGGCGAGAUAGCGCCAACGUCCUCAACCUCCAAUGCAUCCCACCACAUGAUGACGCCUGAAGAGCCUUGGUUUUUUG [A5C C64A U112C],-6.42
12,GACCCAUCUGCCCUCAAAGCUCGAGAACAUCUUCGUAUGCAGAGGAGGCAGGCUUCGGUGGCGCGAUAGCGCCAACGUCCUCAACCUCCAAUGCAUCCCACCACAUGAUGAUGCCUGAAGAGCCUUGGUUUUUUG [A5C G17A G36U],-5.9
13,GACCCAUCUCCCCUCAGAGCUCGAGAACAUCUUCGGAUGCAGCGGAGGCAGGCUUCGGUGGCGCGAUAGCGCCAACGUCCUCAACCUCCAAUGCAUCCCACCACAUGAUGAUGCCUGAAGAGCGUUGGUUUUUUG [A5C G10C A43C C124G],-1.41
14,GACCCAUCUACCCUCAGAGCUCGAGAACAUCUUCGGAUGCAGAGGAGGCAGGCUUCGGUGGCGCGAUAGCGCCAACGUCCUCAACCUCCAAGGCAUCCCACCACAUGAUGAUGCCUGAAGAGCCUUGGUUUUUUG [A5C G10A U92G],-3.52
15,GACCCAUCUGCCCUCAGAGCUCGAGAACAUCUUCGGAUGCAGACGUGGCAGGCUUCGGUGGCGCGAUAGCGCCAACGUCCUCAACCUCCAAUGCAUCCCACCACACGAUGAUGCCUGAAGAGCCUUGGUUUUUUG [A5C G44C A46U U106C],-2.77
16,GACCCAUCUGCCCUCAAAGCUCGAGAACAUCUUCGGAUGCGGAGGAGGCAGGAUUAGGUGGCGCGAUAGUACCAACGUCCUCAACCUCCAAUGCAUCCCACCACAUGAUGACGCCUGAAGAGCCUUGGUUUUUUG [A5C G17A A41G C53A C56A C70U G71A U112C],-6.41
17,GACCCAUCUGCCCUCAGAGCUCGAGAACAUCUUCGGAUGCAGAGGAGGCAGGCUUCGGUGGCGCGAUAGCGCGAACGUCCUCAACCUCCAAUGCAUCCCACCACAUGAUGAUGCCUGAAGAGCCUUGGUUUUUUG [A5C C73G],-0.545
18,GACCCAUCUGCCCUCAGAGCUCGAGAACAUCUUCGGAUGCAGAGGAGGCAGGCUUCGGUUGCGCGAUAGCGCCAACGUCCUCAACCUCCAAUGCAUCCCACCACAUGAUGAUGCCUGAAGAGCCUUGGUUUUUUG [A5C G60U],-1.18
19,GACCCAUCUGCCCUCAGAGCUCGAGAACAUCUUCGGAUGCAGAGGAGGCAGGCUUCGGUGGCGCGAUAGCGACAACGUCCUCAACCUACAAUGCAUCCCACCACAUGAUGAUGCCUGAAGAGCCUUGGUUUUUUG [A5C C72A C88A],-1.74
20,GACCCAUCUGCCCUCAGAGCUCGAGAACAUCUUCGGAUGCAGAGGAGGCAGGCUUCGGUGGCGCGAUAGCGCCAACGUCCUAAACCUCCAAUGCAUCCCAGCACAUGAUGAUGCCUGAAGAGCCUUGGUUUUUUG [A5C C82A C101G],-3.77
21,GACCCAUCUGCCCUCAGAGCUCGAGAACAUCUUCGGAUGCAGAGGAGGCAGGCUUCGGUGGCGCGAUAGCGCCAACGUCCUCAACCUCCAAUGCAUGCCACCACAUGAUGAAGCCUGAAGAUCCUUGGUUUUUUG [A5C C97G U112A G122U],-5.96
